The values that follow come from patent publication US20200317817A1 (XOMA US, published 2020).

In general, Kd refers to the free concentration of one partner at which half of the binding sites on the other are occupied at equilibrium, for simple one-to-one binding. The term koff denotes the rate constant with which the complex falls apart. As usually defined, the kon is the second-order rate constant of association.

The target in assay [1] is T1, recombinant N-terminal extracellular domain of the human PTH1R receptor (human, UniProt Q03431 27-188, limits assumed).
T1 construct: domain: N-terminal extracellular domain; Bought reagent; also called N-ECD PTH1R; PTH1R N-terminal ECD
T1 sequence (looked up): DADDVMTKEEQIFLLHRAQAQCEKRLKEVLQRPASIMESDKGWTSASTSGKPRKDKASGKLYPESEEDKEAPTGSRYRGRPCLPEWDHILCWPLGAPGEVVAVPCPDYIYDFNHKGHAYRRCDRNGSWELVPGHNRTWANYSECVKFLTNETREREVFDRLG
Put plainly: SPR, IgG captured, ECD injected. The procedure:
An anti-human IgG-Fc CMS sensor chip (GE Healthcare) was prepared using standard amine coupling as described by the manufacturer's protocol for the capture Ab on a BIACORE 4000 system (GE Healthcare). Briefly, the chip surface was activated with a 10 minute injection at 10 μL/minute of a freshly mixed 1:1 solution of 0.1 M N-Hydroxysuccinimide (NHS) and 0.4 M 1-Ethyl-3-(3-dimethylaminopropyl) carbodiimide hydrochloride (EDC). Following the activation injection, 15 ug/mL anti-human IgG-Fc antibody in acetate pH 4.5 was injected at 10 μL/minute for 10 minutes to achieve a high density capture surface. 7 minutes of 1M Ethanolamine hydrochloride-NaOH pH 8.5 was injected to block the surface. The NHS, EDC, and Ethanolamine used were from the BIACORE Amine Coupling Kit.
Kinetic Analysis was performed using HBS-EP+(Teknova) with 2.5 mg/mL BSA (Sigma Aldrich, St. Louis Mo.). Antibodies were diluted to 0.5 μg/mL and captured to achieve a surface density of 100 to 200 RU. […] Injections were performed at 30 μL/minute for 240 seconds with a 360 second dissociation time. Regeneration was then performed with one 60 second injection 3M MgCl.
The data were analyzed using BIACORE 4000 Evaluation Software and was double referenced by subtracting both the blank flow cell data and the averaged bracketing blank injections. The data was fit by simultaneously fitting the an off-rate (kd) and on-rate (kₐ), and calculating the KD as KD=kd/kₐ.
A general note: SPR reads the build-up and loss of mass on a sensor chip optically.

The target in assay [2] is T2, mouse PTH1R overexpressed on CHO cells (mouse, UniProt P41593 27-591).
T2 sequence (looked up): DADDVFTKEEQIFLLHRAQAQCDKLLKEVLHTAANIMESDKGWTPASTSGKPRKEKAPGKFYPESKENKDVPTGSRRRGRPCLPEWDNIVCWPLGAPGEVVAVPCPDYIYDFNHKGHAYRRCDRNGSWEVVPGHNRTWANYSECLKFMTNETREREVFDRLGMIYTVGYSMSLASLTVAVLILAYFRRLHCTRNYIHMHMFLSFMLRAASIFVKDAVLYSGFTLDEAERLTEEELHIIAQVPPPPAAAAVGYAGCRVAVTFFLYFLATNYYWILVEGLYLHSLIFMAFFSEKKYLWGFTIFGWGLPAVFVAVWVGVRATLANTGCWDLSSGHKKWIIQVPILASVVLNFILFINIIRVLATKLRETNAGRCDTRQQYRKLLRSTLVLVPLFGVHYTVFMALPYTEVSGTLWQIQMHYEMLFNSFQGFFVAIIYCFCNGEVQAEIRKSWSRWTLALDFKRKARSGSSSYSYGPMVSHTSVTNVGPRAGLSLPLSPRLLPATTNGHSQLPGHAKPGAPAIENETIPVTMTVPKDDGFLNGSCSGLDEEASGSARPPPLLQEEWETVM
Description: cell-based or functional assay.

For assay [3], the target named is T3, human PTH1R on Saos-2 cells (endogenous) (human, UniProt Q03431 27-593).
T3 sequence (looked up): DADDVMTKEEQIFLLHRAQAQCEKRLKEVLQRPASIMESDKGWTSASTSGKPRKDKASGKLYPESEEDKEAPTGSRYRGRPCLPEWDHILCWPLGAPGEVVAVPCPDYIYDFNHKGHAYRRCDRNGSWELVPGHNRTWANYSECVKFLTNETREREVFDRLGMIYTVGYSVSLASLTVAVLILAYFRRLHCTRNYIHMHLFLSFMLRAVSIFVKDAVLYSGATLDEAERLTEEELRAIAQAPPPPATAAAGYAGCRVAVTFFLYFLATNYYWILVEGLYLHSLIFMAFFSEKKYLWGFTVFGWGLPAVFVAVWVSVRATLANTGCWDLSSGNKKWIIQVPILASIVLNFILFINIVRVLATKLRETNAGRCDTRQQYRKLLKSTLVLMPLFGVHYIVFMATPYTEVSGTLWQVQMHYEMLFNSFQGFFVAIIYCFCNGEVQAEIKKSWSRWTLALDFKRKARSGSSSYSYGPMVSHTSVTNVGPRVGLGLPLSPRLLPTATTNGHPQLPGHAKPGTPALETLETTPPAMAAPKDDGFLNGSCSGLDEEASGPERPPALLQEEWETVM
Put plainly: cell-based or functional assay.

The target of assay [4] is T4, rat PTH1R on UMR106 cells (rat, UniProt P25961 27-591).
T4 sequence (looked up): T2 sequence (looked up) with P58S, L497P, I518T, N520T, I523L, T528A
Put plainly: cell-based or functional assay.

Assay [5] has as its target T3, human PTH1R on Saos-2 cells (endogenous). Put plainly: cell-based or functional assay. This is another data set of the same source.
Assay [6] concerns the target T5, human PTH1R overexpressed on CHO cells (human, UniProt Q03431 27-593).
T5 sequence (looked up): T3 sequence (looked up)
Description: cell-based or functional assay.

Positions count from the first letter of the chain named.

B1: XPA.85.326 (antibody, V domains shown)
VH: QMQLVQSGAEVKKPGSSVKVSCKASGGTFSSYAISWVRQAPGQGLEWMGGIIPIFGTANYAQKFQGRVTITADESTSTAYMELSSLRSEDTAVYYCARGYVVARLWGQGTLVTVSS
VL: DIVMTQTPLSLSVTPGQPASISCKSSQSLLHIDGLTYLYWYLQKPGQPPQLLIYEVSHRFSGVSDKFSGSGSGTDFTLTISRVEAEDVGVYYCMQSLHLPITFGQGTRLEIK
notes: Light-chain-shuffled variant of XPA.85.012
In the case of B1, in assay [1], the Kd was determined as 0.19 nM, the koff amounted to 7.3e-05 s⁻¹ and the kon turned out to be 380000 M⁻¹ s⁻¹.

B2: XPA.85.347 (antibody, V domains shown)
VH: B1 VH
VL: DIVMTQTPLSLSVTPGQPASISCKSSQSLFHDHGRTHLSWYLQKPGQPPQLLIFEASNRFSGVPDRFSGSGSGTDFTLKISRVEAEDVGVYYCMQGIHLPPAFGGGTKLEIK
notes: as for B1
Consider B2, for which, in assay [1], the equilibrium dissociation constant (Kd) is 0.87 nM, the koff was 0.00077 s⁻¹ and the kon is 880000 M⁻¹ s⁻¹. Moreover, the “IC50, inhibition of PTHrP(1-34)-induced cAMP accumulation” value in assay [2] is 2.9 nM.

B3: XPA.85.288 (antibody, V domains shown)
VH: B1 VH
VL: B1 VL with I2V, L35K, P45S, P48S, H58N, S64P, K66T, T79K, L99F
notes: also called Ab288
On to B3, for which, in assay [1], the Kd worked out at 0.18 nM, the koff was found to be 0.00014 s⁻¹ and the kon is 780000 M⁻¹ s⁻¹. In addition, in assay [3], the “% inhibition of cAMP accumulation at 1 µM PTH(1-34), 267 nM IgG” value (shortened to “% inhibition … at 1 µM PTH(1-34), 267 nM IgG”) was found to be 79% and the “% inhibition of cAMP accumulation at 1 µM PTHrP(1-34), 267 nM IgG” value was determined as 79%. For the same molecule, in assay [4], the “% inhibition … at 1 µM PTH(1-34), 267 nM IgG” value was determined as 73% and the “% inhibition of cAMP accumulation at 1 µM PTHrP(1-34), 267 nM IgG” value worked out at 45%. In addition, the “fold shift of the PTH (1-34) dose response, M-CSF secretion by Saos-2 cells” value (“fold shift of the PTH” below) in assay [5] is greater than 10 fold.

B4: XPA.85.331 (antibody, V domains shown)
VH: B1 VH
VL: DVVMTQSPLSLPVTPGEPASISCRSSQSLLHIDGFNYLQWYLQKPGQSPQLLVHLGSFRASGVPDRFSGSGSGTDFTLEISRVEAEDVGLYYCMQGLQTPPTFGPGTKVEIK
notes: as for B1
B4: in assay [1], the Kd was 0.22 nM, the koff amounted to 0.00035 s⁻¹ and the kon is 1.6e+06 M⁻¹ s⁻¹. For the same molecule, the “IC50, inhibition of PTHrP(1-34)-induced cAMP accumulation” value in assay [2] came to 3.2 nM. Moreover, in assay [6], the “IC50, inhibition of PTH(1-34)-induced cAMP accumulation” value worked out at 14.2 nM and the “IC50, inhibition of PTHrP(1-34)-induced cAMP accumulation” value turned out to be 8.86 nM. Also, in assay [3], the “% inhibition … at 1 µM PTH(1-34), 267 nM IgG” value came out at 67% and the “% inhibition of cAMP accumulation at 1 µM PTHrP(1-34), 267 nM IgG” value is 72%. Further, in assay [4], the “% inhibition … at 1 µM PTH(1-34), 267 nM IgG” value stood at 42% and the “% inhibition of cAMP accumulation at 1 µM PTHrP(1-34), 267 nM IgG” value came to 37%. Also, the “fold shift of the PTH” value in assay [5] is greater than 10 fold.

B5: XPA.85.345 (antibody, V domains shown)
VH: B1 VH
VL: ETTLTQSPAFMSASVGDRVTITCQASQDINNFLNWYQQKPGKAPKFLIYDASNLEKGVPSRFSGRGSGTEFTLTISSLQPEDIATYYCQQYRDFPLTFGQGTRLEIK
notes: as for B1
Consider B5, for which, in assay [1], the Kd came to 0.56 nM, the koff was found to be 0.0013 s⁻¹ and the kon is 2.3e+06 M⁻¹ s⁻¹. The “IC50, inhibition of PTHrP(1-34)-induced cAMP accumulation” value in assay [2] was 2.53 nM. Besides, in assay [6], the “IC50, inhibition of PTH(1-34)-induced cAMP accumulation” value stood at 14.2 nM and the “IC50, inhibition of PTHrP(1-34)-induced cAMP accumulation” value turned out to be 12.1 nM.

B6: XPA.85.346 (antibody, V domains shown)
VH: B1 VH
VL: B1 VL with S22T, L35K, Y41F, H58N, S64P, K66R, T79K, V90L
notes: as for B1
On to B6, for which, in assay [1], the Kd amounted to 0.31 nM, the koff is 0.00014 s⁻¹ and the kon came out at 450000 M⁻¹ s⁻¹. The “IC50, inhibition of PTHrP(1-34)-induced cAMP accumulation” value in assay [2] was 3.57 nM. Besides, in assay [6], the “IC50, inhibition of PTH(1-34)-induced cAMP accumulation (curve does not reach a plateau)” value is 29.9 nM and the “IC50, inhibition of PTHrP(1-34)-induced cAMP accumulation” value was found to be 14.6 nM. In assay [3], the “% inhibition … at 1 µM PTH(1-34), 267 nM IgG” value was found to be 72% and the “% inhibition of cAMP accumulation at 1 µM PTHrP(1-34), 267 nM IgG” value came out at 75%. Also, in assay [4], the “% inhibition … at 1 µM PTH(1-34), 267 nM IgG” value turned out to be 40% and the “% inhibition of cAMP accumulation at 1 µM PTHrP(1-34), 267 nM IgG” value is 31%. Besides, in assay [5], the “fold shift of the PTH” value is greater than 10 fold.

B7: XPA.85.327 (antibody, V domains shown)
VH: B1 VH
VL: B1 VL with S22T, L35N, K44R, V56I, H58N, S64P, K66R, T79K, L99F
notes: Light-chain-shuffled variant of XPA.85.012; also called XPA.327
B7: in assay [1], the Kd came to 0.15 nM, the koff came out at 0.00011 s⁻¹ and the kon is 740000 M⁻¹ s⁻¹. In addition, in assay [5], the “fold shift of the PTH” value was greater than 10 fold.

B8: XPA.85.342 (antibody, V domains shown)
VH: B1 VH
VL: B5 VL with A9T
notes: as for B1
As to B8, in assay [1], the Kd came out at 0.52 nM, the koff stood at 0.0012 s⁻¹ and the kon was determined as 2.3e+06 M⁻¹ s⁻¹. In addition, in assay [3], the “% inhibition … at 1 µM PTH(1-34), 267 nM IgG” value was found to be 0% and the “% inhibition of cAMP accumulation at 1 µM PTHrP(1-34), 267 nM IgG” value was 17%. In assay [4], the “% inhibition … at 1 µM PTH(1-34), 267 nM IgG” value turned out to be 6% and the “% inhibition of cAMP accumulation at 1 µM PTHrP(1-34), 267 nM IgG” value was 0%.
